In the supplement of paper PMC10567573 one finds protein stability index data, which are given here for 29 sequences.

A short description of this data set: protein stability index of a GFP-peptide fusion (GPS, HEK-293T) (PSI 1-6); higher = more stable.
The mark [1] stands for this setting: treatment: DMSO, c terminus: a fixed tail appended.
The mark [2] stands for this setting: treatment: MLN4924 1 uM, 8 h, c terminus: a fixed tail appended.
Setting [3] is: treatment: DMSO, c terminus: native.
The mark [4] stands for this setting: treatment: MLN4924 1 uM, 8 h, c terminus: native.

± gives the standard deviation.
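Also: 24-mer peptide tiles fused after GFP, lentivirally expressed, FACS-sorted into six equal bins by GFP/DsRed ratio, decoded by Illumina sequencing, PSI is the read-weighted mean bin number.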

FNGLTLLLMAVVSMFTLPVVYVKH [RTN1] showed a protein stability index under setting [1] of 3.3 ± 0.28 and a protein stability index under setting [2] of 3 ± 0.41.
The corresponding values for FPESETKECPFRVNKVCGAACSSK [SERPINB5] are 2.8 ± 0.56 and 3.55 ± 0.66.
Taken in the same sequence, the figures for FPKQILDQNNVIENEETGEFSIDN [MIA2] were 5.136 ± 0.027 and 5.06 ± 0.24.
Taken in the same sequence, the figures for FPRDHTSLALVQNGDVSAPSAILR [ANKRD40] were 3.72 ± 0.34 and 3.97 ± 0.2.
As for FRNAASTLTERPCYNRRASKLTY [ANKRD40], the protein stability index is, setting by setting: under setting [3], 3.26 ± 0.21; under setting [4], 3.16 ± 0.39.
In the case of FRNPMMSKLRNYRKDLAKLHREVR [VTI1B], the protein stability index came out at 2.37 ± 0.36 under setting [1] and 2.46 ± 0.24 under setting [2].
The corresponding values for FRSPSMPCSVIRPILKRLERPQDR [CDC25B] are 3.64 ± 0.19 and 3.56 ± 0.2.
Regarding FSDHTFRHYAYLRDSLSHLVPALR [INTS4], the protein stability index under setting [1] came to 2.27 ± 0.18 and the protein stability index under setting [2] was 2.36 ± 0.2.
Taken in the same sequence, the figures for FSFMYILVGLTVIGAFLNLVVLRF [KCNK9] were 3.18 ± 0.13 and 3.25 ± 0.31.
Taken in the same sequence, the figures for FSFSMKGHEKTAKSKTRSLLKRME [DLC1] were 2.84 ± 0.24 and 3.06 ± 0.23.
As for FSHSGRYIMTRDYLTVKVWDLNME [PPP2R2B], the protein stability index runs as follows: under setting [1], 2.63 ± 0.49; under setting [2], 2.3 ± 0.38.
The corresponding values for FSTDAFSSPPQGASPVPESSLTAD [SNAP91] are 3.65 ± 0.57 and 4.25 ± 0.43.
Taken in the same sequence, the figures for FTCDLQHTETGEEVLRMCVAVKKK [VPS39] were 2.84 ± 0.3 and 2.96 ± 0.4.
Taken in the same sequence, the figures for FTEKLWPLFYPGIRAGRKNAAPLT [TRIM39] were 2.59 ± 0.74 and 2.25 ± 0.16.
FTFLQPLPLSPGVLSSTPDHSFSL [ATF4]: the protein stability index by setting is: under setting [1], 2.2 ± 0.33; under setting [2], 2.19 ± 0.33.
The corresponding values for FTGKAEMGGPFSYVYFFCTVPEIL [TMEM106C] are 2.72 ± 0.59 and 2.16 ± 0.87.
Taken in the same sequence, the figures for FTKVVQPQEEIATKKLRLTKPSKS [INTS4] were 3.92 ± 0.57 and 4.07 ± 0.3.
The corresponding values for FTMFLNLFGEKLSGTDAEETILNA [MYL5] are 2.12 ± 0.37 and 2.21 ± 0.2.
GADPKSVVCAFFKQGQCTKGDKCK [ZC3H15]: the protein stability index by setting is: under setting [1], 3.82 ± 0.14; under setting [2], 4.28 ± 0.37.
The corresponding values for GAFRKGKSFILDFMLRYLYSQKES [ATL3] are 2.3 ± 0.42 and 2.22 ± 0.49.
For the sequence GAQVNMPADSFESPLTLAACGGHV [ANKRD17], the protein stability index is, setting by setting: under setting [1], 4.23 ± 0.23; under setting [2], 4.24 ± 0.12.
The corresponding values for GASTSCLLPVQVVTEHPLELIRVE [PCDHGC5] are 3.12 ± 0.62 and 3.29 ± 0.37.
Taken in the same sequence, the figures for GDPEEPLTGFSWRGGSDPETTGIQ [ATL3] were 5.13 ± 0.22 and 5.17 ± 0.12.
The corresponding values for GDVLLDETLKHIKATEPTETVQTW [GOLPH3L] are 4.41 ± 0.27 and 4.45 ± 0.26.
With GDWIGLYRHFLKSPNFDGWFKTRR [DENND6A], the protein stability index reads like this: under setting [1], 2.82 ± 0.038; under setting [2], 2.49 ± 0.49.
GEDRAGPQSPSPGAPPAAKPARG [TSPAN10]: the protein stability index amounted to 5.32 ± 0.27 under setting [3] and 5.13 ± 0.12 under setting [4].
GEGNSSQNSRNKRAVQGPEETVTQ [TNFSF13B] gave a protein stability index under setting [1] of 5.51 ± 0.2 and a protein stability index under setting [2] of 5.47 ± 0.096.
With GEKPYECVQCGKSYSQSSNLFRHQ [ZNF24], the protein stability index reads like this: under setting [1], 2.4 ± 0.62; under setting [2], 2.83 ± 0.56.
The corresponding values for GELPNHPKPAGGAIPTKKSLPSPS [FBF1] are 5.2 ± 0.25 and 5.25 ± 0.16.
